The test system of one data set is biotinyl-Phe-oxazolone. In words: self-aminoacylation, catalytic enhancement (BFO) (fold over background); higher = more active; k-Seq, kA / k0A0; sequences stand for … in GGGAAUGGAUCCACAUCUACGAAUUC…UUCACUGCAGACUUGACGAAGCUG
Put shortly: (§1)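 Each biotinyl-aminoacyl-oxazolone, at 2–1250 μM, was incubated with mutagenized RNA pools (0.43 μM) carrying a 21-nt variable region. The 50 μL reactions contained HEPES/NaCl/KCl/MgCl2/CaCl2 buffer with 5% acetonitrile at pH 6.9–7.0 and ran for 90 minutes at room temperature. After streptavidin capture, RNA was measured by qPCR in triplicate and by Illumina sequencing, and catalytic enhancement was calculated as median kA over the uncatalyzed rate from a pseudo-first-order fit of per-sequence fraction reacted.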

For another data set, the system named is biotinyl-Val-oxazolone. Description: self-aminoacylation, catalytic enhancement (BVO) (fold over background); higher = more active; k-Seq, kA / k0A0; sequences stand for … in GGGAAUGGAUCCACAUCUACGAAUUC…UUCACUGCAGACUUGACGAAGCUG
Put shortly:
as §1

In another data set the test system is biotinyl-Trp-oxazolone. In words: self-aminoacylation, catalytic enhancement (BWO) (fold over background); higher = more active; k-Seq, kA / k0A0; sequences stand for … in GGGAAUGGAUCCACAUCUACGAAUUC…UUCACUGCAGACUUGACGAAGCUG
A digest of the protocol:
as §1

Another data set has as its system biotinyl-Met-oxazolone. Description: self-aminoacylation, catalytic enhancement (BMO) (fold over background); higher = more active; k-Seq, kA / k0A0; sequences stand for … in GGGAAUGGAUCCACAUCUACGAAUUC…UUCACUGCAGACUUGACGAAGCUG
A digest of the protocol:
as §1

The next data set concerns biotinyl-Leu-oxazolone. Description: self-aminoacylation, catalytic enhancement (BLO) (fold over background); higher = more active; k-Seq, kA / k0A0; sequences stand for … in GGGAAUGGAUCCACAUCUACGAAUUC…UUCACUGCAGACUUGACGAAGCUG
Put shortly: as §1

A further data set concerns biotinyl-Ile-oxazolone. Description: self-aminoacylation, catalytic enhancement (BIO) (fold over background); higher = more active; k-Seq, kA / k0A0; sequences stand for … in GGGAAUGGAUCCACAUCUACGAAUUC…UUCACUGCAGACUUGACGAAGCUG
A digest of the protocol:
as §1

Variants at the floor of the assay were thinned out.

For the sequence “AUUCACCUAUGUCAUCGGGGG [Fam2.2 aminoacylation ribozyme variant]”, the self-aminoacylation stood at 6.23 in the data set on biotinyl-Phe-oxazolone; 1.38 in the data set with biotinyl-Val-oxazolone; 1.58 with biotinyl-Trp-oxazolone; 2 in the data set with biotinyl-Met-oxazolone; 1.93 in the data set with biotinyl-Leu-oxazolone; 1.5 with biotinyl-Ile-oxazolone.

Consider “CCACACUACAAGCGAUCGGUC [Fam1B.1 aminoacylation ribozyme variant]”, for which the self-aminoacylation came to 0.866 in the data set with biotinyl-Phe-oxazolone; 1.29 with biotinyl-Val-oxazolone; 1.03 in the data set with biotinyl-Trp-oxazolone; 0.977 in the data set with biotinyl-Met-oxazolone; 1.24 in the data set with biotinyl-Leu-oxazolone; 1.09 in the data set on biotinyl-Ile-oxazolone.

On to “CCACGCUUAAAGCAAUCGGUC [Fam1B.1 aminoacylation ribozyme variant]”, for which the self-aminoacylation in the data set on biotinyl-Phe-oxazolone came to 0.884; with biotinyl-Val-oxazolone it was 1.02; in the data set on biotinyl-Trp-oxazolone, 0.646; in the data set with biotinyl-Met-oxazolone, 0.741; in the data set on biotinyl-Leu-oxazolone, 0.752; in the data set with biotinyl-Ile-oxazolone, 0.96.

In the case of “AUUGCCCUGGUAAUCGAGUGA [Fam2.1 aminoacylation ribozyme variant]”, the self-aminoacylation came to 56 in the data set on biotinyl-Phe-oxazolone; 3.92 in the data set on biotinyl-Val-oxazolone; 9.18 in the data set on biotinyl-Trp-oxazolone; 8.63 in the data set with biotinyl-Met-oxazolone; 7.99 in the data set with biotinyl-Leu-oxazolone; 3.71 in the data set on biotinyl-Ile-oxazolone.

For “CUGCUUCAAACAAUCGGUCUU [Fam1A.1 aminoacylation ribozyme variant]”, the self-aminoacylation in the data set with biotinyl-Phe-oxazolone came out at 107; with biotinyl-Val-oxazolone it was 1.72; in the data set with biotinyl-Trp-oxazolone it was 52; in the data set on biotinyl-Met-oxazolone it was 1.91; in the data set with biotinyl-Leu-oxazolone it was 2.97; in the data set with biotinyl-Ile-oxazolone, 1.84.

As to “AUUCACCUAGGUCAACAGGUG [Fam2.2 aminoacylation ribozyme variant]”, the self-aminoacylation in the data set with biotinyl-Phe-oxazolone was 5.63; in the data set with biotinyl-Val-oxazolone, 1.56; in the data set on biotinyl-Trp-oxazolone, 1.87; in the data set on biotinyl-Met-oxazolone, 2.2; in the data set on biotinyl-Leu-oxazolone, 2.8; in the data set with biotinyl-Ile-oxazolone it was 1.64.

On to “CUACUUCAACCAAGCGGUCUG [Fam1A.1 aminoacylation ribozyme variant]”, for which the self-aminoacylation in the data set with biotinyl-Phe-oxazolone was 0.739; in the data set with biotinyl-Val-oxazolone, 0.954; in the data set on biotinyl-Trp-oxazolone, 0.8; with biotinyl-Met-oxazolone, 0.907; in the data set on biotinyl-Leu-oxazolone it was 0.942; in the data set with biotinyl-Ile-oxazolone it was 1.02.

“AAGUUUCCUAUUAGUCGCAAG [Fam3.1 aminoacylation ribozyme variant]”: the self-aminoacylation in the data set on biotinyl-Phe-oxazolone worked out at 1.87; in the data set on biotinyl-Val-oxazolone, 1.32; with biotinyl-Trp-oxazolone, 1.35; in the data set on biotinyl-Met-oxazolone, 1.24; with biotinyl-Leu-oxazolone, 1.22; in the data set with biotinyl-Ile-oxazolone it was 1.29.

As for “AUUCACCGGGGUCAUCGGGUG [Fam2.2 aminoacylation ribozyme variant]”, the self-aminoacylation in the data set with biotinyl-Phe-oxazolone turned out to be 80.5; in the data set with biotinyl-Val-oxazolone, 7.4; in the data set with biotinyl-Trp-oxazolone, 9.14; in the data set on biotinyl-Met-oxazolone, 8.15; in the data set with biotinyl-Leu-oxazolone it was 10.7; in the data set with biotinyl-Ile-oxazolone, 6.47.

Consider “CCACUUCAAAGAAUCGGUCUG [Fam1A.1 aminoacylation ribozyme variant]”, for which the self-aminoacylation worked out at 11.4 in the data set on biotinyl-Phe-oxazolone; 1.13 in the data set on biotinyl-Val-oxazolone; 8.92 in the data set with biotinyl-Trp-oxazolone; 1.04 in the data set on biotinyl-Met-oxazolone; 1.32 with biotinyl-Leu-oxazolone; 1.15 in the data set on biotinyl-Ile-oxazolone.

Turning to “CCACUCGUCAAGCAAUCGGUC [Fam1B.1 aminoacylation ribozyme variant]”, the self-aminoacylation in the data set on biotinyl-Phe-oxazolone was 0.586; with biotinyl-Val-oxazolone, 1.58; in the data set on biotinyl-Trp-oxazolone, 0.864; with biotinyl-Met-oxazolone, 1.18; in the data set on biotinyl-Leu-oxazolone, 1.35; with biotinyl-Ile-oxazolone, 1.15.

Take “CUGCUUCAAAAAAUCGGUCUG [Fam1A.1 aminoacylation ribozyme variant]”: the self-aminoacylation worked out at 17.9 in the data set with biotinyl-Phe-oxazolone; 0.976 with biotinyl-Val-oxazolone; 14.2 in the data set with biotinyl-Trp-oxazolone; 1.25 in the data set with biotinyl-Met-oxazolone; 1.59 in the data set with biotinyl-Leu-oxazolone; 1.35 in the data set with biotinyl-Ile-oxazolone.

In the case of “AAGUUCGCUAAUAGUCGCAUG [Fam3.1 aminoacylation ribozyme variant]”, the self-aminoacylation was 8.49 in the data set with biotinyl-Phe-oxazolone; 2.37 in the data set on biotinyl-Val-oxazolone; 3.05 with biotinyl-Trp-oxazolone; 2.27 with biotinyl-Met-oxazolone; 2.88 with biotinyl-Leu-oxazolone; 2.16 with biotinyl-Ile-oxazolone.

The values are drawn from the supplement of paper PMC9233669.
